# B1: VIS410 (antibody, V domains shown)
# VH: QVQLLETGGGLVKPGQSLKLSCAASGFTFTSYAMHWVRQPPGKGLEWVAVVSYDGNYKYYADSVQGRFTISRDNSKNTLYLQMNSLRAEDTAVYYCAKDSRLRSLLYFEWLSQGYFNPWGQGTTLTVSS
# VL: DIQMTQSPSSLSASVGDRVTITCRSSQSITFDYKNYLAWYQQKPGKAPKLLIYWGSYLESGVPSRFSGSGSGTDFTLTISSLQPEDFATYYCQQHYRTPPSFGQGTKVEIK
# Legend:
# Test in all cases: cell-based or functional assay
# [1] = target: T1, hemagglutinin (HA) of influenza A/PR/8/1934 (H1N1) (influenza A virus (H1N1), UniProt P03452 18-565)
# [2] = target: hemagglutinin (HA) of influenza A/South Africa/81130/2017 (H3N2) (influenza A virus (H3N2))
# [3] = target: hemagglutinin (HA) of influenza A/South Africa/80811/2017 (H1N1) (influenza A virus (H1N1))
# [4] = target: hemagglutinin (HA) of influenza A/South Africa/80521/2017 (H3N2) (influenza A virus (H3N2))
# [5] = target: T1, hemagglutinin (HA) of influenza …; remark: listed apart in the source
# [6] = target: hemagglutinin (HA) of influenza A/South Africa/80714/2017 (H3N2) (influenza A virus (H3N2))
# [7] = target: hemagglutinin (HA) of influenza A/South Africa/81313/2017 (H3N2) (influenza A virus (H3N2))
# [8] = target: hemagglutinin (HA) of influenza A/South Africa/80308/2017 (H3N2) (influenza A virus (H3N2))
# [9] = target: hemagglutinin (HA) of influenza A/South Africa/80836/2017 (H1N1) (influenza A virus (H1N1))
# [10] = target: hemagglutinin (HA) of influenza A/South Africa/80837/2017 (H1N1) (influenza A virus (H1N1))
# [11] = target: hemagglutinin (HA) of influenza A/South Africa/80316/2017 (H3N2) (influenza A virus (H3N2))
# [12] = target: hemagglutinin (HA) of influenza A/South Africa/80860/2017 (H1N1) (influenza A virus (H1N1))
# [13] = target: hemagglutinin (HA) of influenza A/South Africa/80919/2017 (H3N2) (influenza A virus (H3N2))
# [14] = target: hemagglutinin (HA) of influenza A/South Africa/80839/2017 (H3N2) (influenza A virus (H3N2))
# [15] = target: hemagglutinin (HA) of influenza A/South Africa/0808006/2018 (H1N1) (influenza A virus (H1N1))
# T1 sequence (P03452 18-565 limits assumed): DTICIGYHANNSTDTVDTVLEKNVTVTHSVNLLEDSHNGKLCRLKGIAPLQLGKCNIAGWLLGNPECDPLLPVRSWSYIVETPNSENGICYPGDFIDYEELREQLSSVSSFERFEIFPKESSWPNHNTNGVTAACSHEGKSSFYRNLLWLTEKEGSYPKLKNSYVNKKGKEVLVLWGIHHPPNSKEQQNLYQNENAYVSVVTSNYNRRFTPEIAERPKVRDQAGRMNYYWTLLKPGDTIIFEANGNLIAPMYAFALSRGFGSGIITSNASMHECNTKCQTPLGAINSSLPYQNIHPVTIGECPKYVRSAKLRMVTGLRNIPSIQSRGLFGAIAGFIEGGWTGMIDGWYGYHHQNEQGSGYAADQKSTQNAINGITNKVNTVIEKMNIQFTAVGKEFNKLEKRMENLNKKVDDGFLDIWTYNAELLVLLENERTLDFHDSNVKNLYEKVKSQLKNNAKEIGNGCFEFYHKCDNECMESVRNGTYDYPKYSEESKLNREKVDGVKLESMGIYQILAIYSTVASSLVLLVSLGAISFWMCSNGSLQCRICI
binder,measurement,setting,value
B1,"EC50, antiviral activity against wild-type A/PR/8/1934 (H1N1) virus",[1],7.4 nM
same,"IC50, phenotypic IC50 assay (virus infection of MDCK cells)",[2],1 µg/mL
same,"IC50, phenotypic IC50 assay (virus infection of MDCK cells)",[3],0.38 µg/mL
same,"IC50, phenotypic IC50 assay (virus infection of MDCK cells)",[4],1.09 µg/mL
same,"IC50 (µg/mL), baloxavir-sensitive A/Puerto Rico/8/1934_H1N1 WT virus",[5],0.3 µg/mL
same,"IC50, phenotypic IC50 assay (virus infection of MDCK cells)",[6],0.13 µg/mL
same,"IC50, phenotypic IC50 assay (virus infection of MDCK cells)",[7],1.38 µg/mL
same,"IC50, phenotypic IC50 assay (virus infection of MDCK cells)",[8],0.91 µg/mL
same,"IC50, phenotypic IC50 assay (virus infection of MDCK cells)",[9],0.73 µg/mL
same,"IC50, phenotypic IC50 assay (virus infection of MDCK cells)",[10],0.25 µg/mL
same,"IC50, phenotypic IC50 assay (virus infection of MDCK cells)",[11],0.57 µg/mL
same,"IC50, phenotypic IC50 assay (virus infection of MDCK cells)",[12],0.26 µg/mL
same,"IC50, phenotypic IC50 assay (virus infection of MDCK cells)",[13],2.55 µg/mL
same,"IC50, phenotypic IC50 assay (virus infection of MDCK cells)",[14],0.41 µg/mL
same,"IC50, phenotypic IC50 assay (virus infection of MDCK cells)",[15],0.42 µg/mL
